These results are taken from publication PMC10204870, “Analysis of aptamer-target binding and molecular mechanisms by thermofluorimetric analysis and molecular dynamics simulation”.

The target in this data set is T1, alpha-fetoprotein (AFP) (Homo sapiens, UniProt P02771 19-609).
T1 sequence: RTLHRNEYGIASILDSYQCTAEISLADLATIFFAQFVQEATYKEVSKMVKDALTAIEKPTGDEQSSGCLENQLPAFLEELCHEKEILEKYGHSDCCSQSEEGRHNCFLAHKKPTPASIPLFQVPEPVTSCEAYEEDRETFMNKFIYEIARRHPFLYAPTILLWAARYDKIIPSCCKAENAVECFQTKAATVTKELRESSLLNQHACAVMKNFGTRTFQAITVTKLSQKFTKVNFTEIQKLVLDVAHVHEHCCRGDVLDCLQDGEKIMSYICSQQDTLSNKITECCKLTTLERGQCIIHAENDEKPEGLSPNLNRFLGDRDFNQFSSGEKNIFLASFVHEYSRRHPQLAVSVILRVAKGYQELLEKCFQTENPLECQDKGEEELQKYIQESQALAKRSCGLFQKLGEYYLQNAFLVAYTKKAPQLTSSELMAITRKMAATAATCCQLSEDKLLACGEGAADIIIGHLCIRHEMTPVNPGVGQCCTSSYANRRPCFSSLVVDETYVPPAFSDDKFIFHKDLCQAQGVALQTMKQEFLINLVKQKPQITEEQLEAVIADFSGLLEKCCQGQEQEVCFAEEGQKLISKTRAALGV
As to the kind of experiment: thermofluorimetric analysis (EvaGreen melting curves); 1.25-80 nM and 1-5 nM aptamer; HEPES buffer with Na+, K+, Mg2+, Ca2+; 20 mM HEPES-Na, 120 mM NaCl, 4 mM KCl, 2 mM MgCl2, 1 mM CaCl2, pH 7.35 (aptamer diluent); 30 min at room temperature, then melt 4-80 C with EvaGreen; AFP stock. The settings on record: protein: recombinant; label: EvaGreen dye (non-covalent).

B1: AP273 (ssDNA)
DNA: GTGACGCTCCTAACGCTGACTCAGGTGCAGTTCTCGACTCGGTCTTGATGTGGGTCCTGTCCGTCCGAACCAATC
B1: the binding result is given as “binds”.
